According to patent US20260049138A1 (Chugai, published 2026):

What follows are binders tested against T1, CD3ε homodimer protein (human, UniProt P07766 23-126, limits assumed, sulfo-tag or biotin label in the ECL assays; amine-coupled to the chip in SPR) (assay: SPR Biacore T200; CD3ε homodimer on CM4 chip;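 further: Single-residue variant antibodies injected as analyte over CD3ε homodimer immobilized by amine coupling, run at 25 °C in HBS-EP+ buffer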).
T1 construct: also called human CD3ε homodimer protein; CD3 (CD3ε)
T1 sequence (P07766 23-126 limits assumed): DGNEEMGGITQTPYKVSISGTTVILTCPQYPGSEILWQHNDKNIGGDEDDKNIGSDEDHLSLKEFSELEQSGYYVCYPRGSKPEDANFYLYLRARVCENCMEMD

| Binder | ratio of amounts bound Z=Y/X (altered form / CE115HA000) |
| --- | --- |
| CE115HA000 Y100aS one-arm antibody (antibody, human IgG1, kappa, L234A L235A, N297A, name in Kabat numbering) heavy: QVQLVESGGGVVQPGRSLRLSCAASGFTFSNAWMHWVRQAPGKGLEWVAQIKAKSNNYATYYAESVKGRFTISRDDSKNSLYLQMNSLKTEDTAVYYCRYVHYGAYSGVDAWGQGTTVTVSSASTKGPSVFPLAPSSKSTSGGTAALGCLVKDYFPEPVTVSWNSGALTSGVHTFPAVLQSSGLYSLSSVVTVPSSSLGTQTYICNVNHKPSNTKVDKKVEPKSCDKTHTCPPCPAPEAAGGPSVFLFPPKPKDTLMISRTPEVTCVVVDVSHEDPEVKFNWYVDGVEVHNAKTKPREEQYASTYRVVSVLTVLHQDWLNGKEYKCKVSNKALPAPIEKTISKAKGQPREPQVYTLPPSRCELTKNQVSLSCAVKGFYPSDIAVEWESNGQPENNYKTTPPVLDSDGSFFLVSKLTVDKSRWQQGNVFSCSVMHEALHNHYTQKSLSLSPDYKDDDDK EPKSSDKTHTCPPCPAPELLGGPSVFLFPPKPKDTLMISRTPEVTCVVVDVSHEDPEVKFNWYVDGVEVHNAKTKPREEQYNSTYRVVSVLTVLHQDWLNGKEYKCKVSNKALPAPIEKTISKAKGQPREPQVCTLPPSRDELTKNQVSLWCLVKGFYPSDIAVEWESNGQPENNYKTTPPVLDSDGSFFLYSKLTVDKSRWQQGNVFSCSVMHEALHNRYTQKSLSLSP light: DIVMTQSPLSLPVTPGEPASISCRSSQSLVHSNRNTYLHWYQQKPGQAPRLLIYKVSNRFSGVPDRFSGSGSGTDFTLKISRVEAEDVGVYYCGQGTQVPYTFGQGTKLEIKRTVAAPSVFIFPPSDEQLKSGTASVVCLLNNFYPREAKVQWKVDNALQSGNSQESVTEQDSKDSTYSLSSTLTLSKADYEKHKVYACEVTHQGLSSPVTKSFNRGEC | 0.64 |
| CE115HA000 Y100aQ one-arm antibody (antibody, human IgG1, kappa, L234A L235A, N297A, name in Kabat numbering) heavy: QVQLVESGGGVVQPGRSLRLSCAASGFTFSNAWMHWVRQAPGKGLEWVAQIKAKSNNYATYYAESVKGRFTISRDDSKNSLYLQMNSLKTEDTAVYYCRYVHYGAYQGVDAWGQGTTVTVSSASTKGPSVFPLAPSSKSTSGGTAALGCLVKDYFPEPVTVSWNSGALTSGVHTFPAVLQSSGLYSLSSVVTVPSSSLGTQTYICNVNHKPSNTKVDKKVEPKSCDKTHTCPPCPAPEAAGGPSVFLFPPKPKDTLMISRTPEVTCVVVDVSHEDPEVKFNWYVDGVEVHNAKTKPREEQYASTYRVVSVLTVLHQDWLNGKEYKCKVSNKALPAPIEKTISKAKGQPREPQVYTLPPSRCELTKNQVSLSCAVKGFYPSDIAVEWESNGQPENNYKTTPPVLDSDGSFFLVSKLTVDKSRWQQGNVFSCSVMHEALHNHYTQKSLSLSPDYKDDDDK EPKSSDKTHTCPPCPAPELLGGPSVFLFPPKPKDTLMISRTPEVTCVVVDVSHEDPEVKFNWYVDGVEVHNAKTKPREEQYNSTYRVVSVLTVLHQDWLNGKEYKCKVSNKALPAPIEKTISKAKGQPREPQVCTLPPSRDELTKNQVSLWCLVKGFYPSDIAVEWESNGQPENNYKTTPPVLDSDGSFFLYSKLTVDKSRWQQGNVFSCSVMHEALHNRYTQKSLSLSP light: DIVMTQSPLSLPVTPGEPASISCRSSQSLVHSNRNTYLHWYQQKPGQAPRLLIYKVSNRFSGVPDRFSGSGSGTDFTLKISRVEAEDVGVYYCGQGTQVPYTFGQGTKLEIKRTVAAPSVFIFPPSDEQLKSGTASVVCLLNNFYPREAKVQWKVDNALQSGNSQESVTEQDSKDSTYSLSSTLTLSKADYEKHKVYACEVTHQGLSSPVTKSFNRGEC | 0.56 |

The binders below were run against T2, human CD154 (human, UniProt P29965 113-261, limits assumed, biotin-labeled) (assay: ECL competition, CD3ε[+]: CD3ε homodimer added as competitor [1]).
T2 construct: also called biotin-labeled human CD154; biotinylated human CD154
T2 sequence (looked up): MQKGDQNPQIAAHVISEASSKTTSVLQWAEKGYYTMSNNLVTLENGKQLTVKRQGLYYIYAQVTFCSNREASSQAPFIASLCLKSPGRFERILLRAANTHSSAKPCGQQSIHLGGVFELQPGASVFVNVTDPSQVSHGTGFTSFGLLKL
Description: Next, each obtained IgG was evaluated for its binding to CD3 and human CD154 at the same time by the competition method (electrochemiluminescence method (ECL method)).
A TBST solution containing 0.5% BSA (referred to as a blocking solution; the TBST solution was TBS (manufactured by Takara Bio Inc.) supplemented with 0.1% Tween 20) was added at 150 μL/well to streptavidin plate (MSD K.K.), and the plate was incubated at room temperature for 1 hour or longer. After removal of the blocking solution, each well was washed three times with 250 μL of a TBST solution. The antibody-antigen complex solution was added thereto at 50 μL/well, and the plate was incubated at room temperature for 1 hour so that the biotinylated antigen-antibody-detection sulfo-tag antibody complex solution bound via the biotinylated antigen to the streptavidin plate. After removal of the antibody-antigen complex solution, each well was washed three times with a TBST solution, and a solution of 4×READ buffer (MSD K.K.) diluted 2-fold with water was added thereto at 150 μL/well, followed by the detection of the luminescence signal of the sulfo-tag using Sector Imager 2400 (MSD K.K.).

| Binder | relative ECL reaction (to no antigen coating) |
| --- | --- |
| 154R4B07#1 one-arm antibody (antibody, human IgG1, kappa, L234A L235A, N297A, As m48) heavy: QVQLVESGGGLVQPGRSLRLSCAASGFTFSNAWMHWVRQAPGKGLEWVAQIKDRGNNYAAYYAESVKGRFTISRDDSKNSIYLQMNSLKTEDTAVYYCRYVHYGSYFFASFYFGVDIWGQGTTVTVSSASTKGPSVFPLAPSSKSTSGGTAALGCLVKDYFPEPVTVSWNSGALTSGVHTFPAVLQSSGLYSLSSVVTVPSSSLGTQTYICNVNHKPSNTKVDKKVEPKSCDKTHTCPPCPAPEAAGGPSVFLFPPKPKDTLMISRTPEVTCVVVDVSHEDPEVKFNWYVDGVEVHNAKTKPREEQYASTYRVVSVLTVLHQDWLNGKEYKCKVSNKALPAPIEKTISKAKGQPREPQVYTLPPSRCELTKNQVSLSCAVKGFYPSDIAVEWESNGQPENNYKTTPPVLDSDGSFFLVSKLTVDKSRWQQGNVFSCSVMHEALHNHYTQKSLSLSPDYKDDDDK EPKSSDKTHTCPPCPAPELLGGPSVFLFPPKPKDTLMISRTPEVTCVVVDVSHEDPEVKFNWYVDGVEVHNAKTKPREEQYNSTYRVVSVLTVLHQDWLNGKEYKCKVSNKALPAPIEKTISKAKGQPREPQVCTLPPSRDELTKNQVSLWCLVKGFYPSDIAVEWESNGQPENNYKTTPPVLDSDGSFFLYSKLTVDKSRWQQGNVFSCSVMHEALHNRYTQKSLSLSP light: DIVMTQSPLSLPVTPGEPASISCRSSQSLVHSNRNTYLHWYQQKPGQAPRLLIYKVSNRFSGVPDRFSGSGSGTDFTLKISRVEAEDVGVYYCGQGTQVPYTFGQGTKLEIKRTVAAPSVFIFPPSDEQLKSGTASVVCLLNNFYPREAKVQWKVDNALQSGNSQESVTEQDSKDSTYSLSSTLTLSKADYEKHKVYACEVTHQGLSSPVTKSFNRGEC | 1 |
| 154R3A01#2 one-arm antibody (antibody, human IgG1, kappa, L234A L235A, N297A, As m48) heavy: QVQLVESGGGLVQPGRSLRLSCAASGFTFSNAWMHWVRQAPGKGLEWVAQIKDRVNQYANYYAESVKGRLTISRDDSKNSIYLQMNSLKTEDTAVYYCRYVHYGLTGYFSGQGGVDAWGQGTTVTVSSASTKGPSVFPLAPSSKSTSGGTAALGCLVKDYFPEPVTVSWNSGALTSGVHTFPAVLQSSGLYSLSSVVTVPSSSLGTQTYICNVNHKPSNTKVDKKVEPKSCDKTHTCPPCPAPEAAGGPSVFLFPPKPKDTLMISRTPEVTCVVVDVSHEDPEVKFNWYVDGVEVHNAKTKPREEQYASTYRVVSVLTVLHQDWLNGKEYKCKVSNKALPAPIEKTISKAKGQPREPQVYTLPPSRCELTKNQVSLSCAVKGFYPSDIAVEWESNGQPENNYKTTPPVLDSDGSFFLVSKLTVDKSRWQQGNVFSCSVMHEALHNHYTQKSLSLSPDYKDDDDK EPKSSDKTHTCPPCPAPELLGGPSVFLFPPKPKDTLMISRTPEVTCVVVDVSHEDPEVKFNWYVDGVEVHNAKTKPREEQYNSTYRVVSVLTVLHQDWLNGKEYKCKVSNKALPAPIEKTISKAKGQPREPQVCTLPPSRDELTKNQVSLWCLVKGFYPSDIAVEWESNGQPENNYKTTPPVLDSDGSFFLYSKLTVDKSRWQQGNVFSCSVMHEALHNRYTQKSLSLSP light: DIVMTQSPLSLPVTPGEPASISCRSSQSLVHSNRNTYLHWYQQKPGQAPRLLIYKVSNRFSGVPDRFSGSGSGTDFTLKISRVEAEDVGVYYCGQGTQVPYTFGQGTKLEIKRTVAAPSVFIFPPSDEQLKSGTASVVCLLNNFYPREAKVQWKVDNALQSGNSQESVTEQDSKDSTYSLSSTLTLSKADYEKHKVYACEVTHQGLSSPVTKSFNRGEC | 4 |
| 154R4F08#1 one-arm antibody (antibody, human IgG1, kappa, L234A L235A, N297A, As m48) heavy: QVQLVESGGGLVQPGHSLRLSCAASGFTFSNAWMHWVRQAPGKGLEWVAQIKDRGNNYAAYYAESVKGRFTISRDDSKNSIYLQMNSLKTEDTAVYYCRYVHYGSYFFASFYFGVDIWGQGTTVTVSSASTKGPSVFPLAPSSKSTSGGTAALGCLVKDYFPEPVTVSWNSGALTSGVHTFPAVLQSSGLYSLSSVVTVPSSSLGTQTYICNVNHKPSNTKVDKKVEPKSCDKTHTCPPCPAPEAAGGPSVFLFPPKPKDTLMISRTPEVTCVVVDVSHEDPEVKFNWYVDGVEVHNAKTKPREEQYASTYRVVSVLTVLHQDWLNGKEYKCKVSNKALPAPIEKTISKAKGQPREPQVYTLPPSRCELTKNQVSLSCAVKGFYPSDIAVEWESNGQPENNYKTTPPVLDSDGSFFLVSKLTVDKSRWQQGNVFSCSVMHEALHNHYTQKSLSLSPDYKDDDDK EPKSSDKTHTCPPCPAPELLGGPSVFLFPPKPKDTLMISRTPEVTCVVVDVSHEDPEVKFNWYVDGVEVHNAKTKPREEQYNSTYRVVSVLTVLHQDWLNGKEYKCKVSNKALPAPIEKTISKAKGQPREPQVCTLPPSRDELTKNQVSLWCLVKGFYPSDIAVEWESNGQPENNYKTTPPVLDSDGSFFLYSKLTVDKSRWQQGNVFSCSVMHEALHNRYTQKSLSLSP light: DIVMTQSPLSLPVTPGEPASISCRSSQSLVHSNRNTYLHWYQQKPGQAPRLLIYKVSNRFSGVPDRFSGSGSGTDFTLKISRVEAEDVGVYYCGQGTQVPYTFGQGTKLEIKRTVAAPSVFIFPPSDEQLKSGTASVVCLLNNFYPREAKVQWKVDNALQSGNSQESVTEQDSKDSTYSLSSTLTLSKADYEKHKVYACEVTHQGLSSPVTKSFNRGEC | 1 |
| 154R3A01#1 one-arm antibody (antibody, human IgG1, kappa, L234A L235A, N297A) heavy: QVQLVESGGGLVQPGRSLRLSCAASGFTFSNAWMHWVRQAPGKGLEWVAQIKDRVNQYANYYAESVKGRFTISRDDSKNSIYLQMNSLKTEDTAVYYCRYVHYGLTGYFSGQGGVDAWGQGTTVTVSSASTKGPSVFPLAPSSKSTSGGTAALGCLVKDYFPEPVTVSWNSGALTSGVHTFPAVLQSSGLYSLSSVVTVPSSSLGTQTYICNVNHKPSNTKVDKKVEPKSCDKTHTCPPCPAPEAAGGPSVFLFPPKPKDTLMISRTPEVTCVVVDVSHEDPEVKFNWYVDGVEVHNAKTKPREEQYASTYRVVSVLTVLHQDWLNGKEYKCKVSNKALPAPIEKTISKAKGQPREPQVYTLPPSRCELTKNQVSLSCAVKGFYPSDIAVEWESNGQPENNYKTTPPVLDSDGSFFLVSKLTVDKSRWQQGNVFSCSVMHEALHNHYTQKSLSLSPDYKDDDDK EPKSSDKTHTCPPCPAPELLGGPSVFLFPPKPKDTLMISRTPEVTCVVVDVSHEDPEVKFNWYVDGVEVHNAKTKPREEQYNSTYRVVSVLTVLHQDWLNGKEYKCKVSNKALPAPIEKTISKAKGQPREPQVCTLPPSRDELTKNQVSLWCLVKGFYPSDIAVEWESNGQPENNYKTTPPVLDSDGSFFLYSKLTVDKSRWQQGNVFSCSVMHEALHNRYTQKSLSLSP light: DIVMTQSPLSLPVTPGEPASISCRSSQSLVHSNRNTYLHWYQQKPGQAPRLLIYKVSNRFSGVPDRFSGSGSGTDFTLKISRVEAEDVGVYYCGQGTQVPYTFGQGTKLEIKRTVAAPSVFIFPPSDEQLKSGTASVVCLLNNFYPREAKVQWKVDNALQSGNSQESVTEQDSKDSTYSLSSTLTLSKADYEKHKVYACEVTHQGLSSPVTKSFNRGEC | 21 |
